Tests used:
[1] = target: T1, ParA_F (SopA) (plasmid F, UniProt P62556 1-388); assay: fluorescence titration; details: apparent Kd; EMSA: 30 mM HEPES-KOH pH 7.5, 150 mM KCl, 3 mM MgCl2, 1 mM DTT, 10% glycerol, 37 C; SPR: 20 mM Hepes-KOH pH 7.4, 100 mM KCl, 10 mM MgCl2, 1 mM DTT, 24 C; MST: …
T1 sequence: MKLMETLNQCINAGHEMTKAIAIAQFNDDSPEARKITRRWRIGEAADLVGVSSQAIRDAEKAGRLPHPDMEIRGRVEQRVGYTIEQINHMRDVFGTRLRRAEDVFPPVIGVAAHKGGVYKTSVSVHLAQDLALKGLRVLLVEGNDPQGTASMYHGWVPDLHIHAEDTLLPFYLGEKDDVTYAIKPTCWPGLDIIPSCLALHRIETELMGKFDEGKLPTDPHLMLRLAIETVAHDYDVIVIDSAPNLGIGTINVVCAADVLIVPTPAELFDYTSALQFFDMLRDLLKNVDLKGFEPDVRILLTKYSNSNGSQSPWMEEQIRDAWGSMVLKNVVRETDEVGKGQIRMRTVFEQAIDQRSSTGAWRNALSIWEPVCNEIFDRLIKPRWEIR

[2] = test system: ParB_F (SopB) (plasmid F); assay: EMSA; details: apparent Kd; EMSA: 30 mM HEPES-KOH pH 7.5, 150 mM KCl, 3 mM MgCl2, 1 mM DTT, 10% glycerol, 37 C; SPR: 20 mM Hepes-KOH pH 7.4, 100 mM KCl, 10 mM MgCl2, 1 mM DTT, 24 C; MST: …
[3] = target: the molecule itself; assay: SEC; analytical gel filtration on a calibrated Superdex 75 10/300GL column; ParAF 4 µM in buffer E (50 mM bis-Tris pH 6, 400 mM NaCl, 0.5 mM DTT), with or without 1 mM ADP; one peak at 9.5 mL
[4] = target: T1, ParA_F (SopA); assay: MST; no nucleotide; EMSA: 30 mM HEPES-KOH pH 7.5, 150 mM KCl, 3 mM MgCl2, 1 mM DTT, 10% glycerol, 37 C; SPR: 20 mM Hepes-KOH pH 7.4, 100 mM KCl, 10 mM MgCl2, 1 mM DTT, 24 C; MST: 10 mM Tris-HCl pH 8, 150 mM NaCl, 50 mM CaCl2, 0.05% Tween 20, 20 mg/mL BSA, 25 C; details: protein: recombinant; tags: none (native); chain copies: 2; label: 5' Cy3
[5] = target: T1, ParA_F (SopA); assay: fluorescence titration; EMSA: 30 mM HEPES-KOH pH 7.5, 150 mM KCl, 3 mM MgCl2, 1 mM DTT, 10% glycerol, 37 C; SPR: 20 mM Hepes-KOH pH 7.4, 100 mM KCl, 10 mM MgCl2, 1 mM DTT, 24 C; MST: 10 mM Tris-HCl pH 8, 150 mM NaCl, 50 mM CaCl2, 0.05% Tween 20, 20 mg/mL BSA, 25 C; details: protein: recombinant; tags: none (native); chain copies: 2; label: 5' Cy3
[6] = target: T1, ParA_F (SopA); assay: EMSA; equimolar ParB_F; estimate close to the probe concentration; no supershift; EMSA: 30 mM HEPES-KOH pH 7.5, 150 mM KCl, 3 mM MgCl2, 1 mM DTT, 10% glycerol, 37 C; SPR: 20 mM Hepes-KOH pH 7.4, 100 mM KCl, 10 mM MgCl2, 1 mM DTT, 24 C; MST: 10 mM Tris-HCl pH 8, 150 mM NaCl, 50 mM CaCl2, 0.05% Tween 20, 20 mg/mL BSA, 25 C; details: protein: recombinant; tags: none (native); chain copies: 2; label: 5' Cy3
[7] = target: T1, ParA_F (SopA); assay: EMSA; 3 mM Mg2+, apparent Kd; EMSA: 30 mM HEPES-KOH pH 7.5, 150 mM KCl, 3 mM MgCl2, 1 mM DTT, 10% glycerol, 37 C; SPR: 20 mM Hepes-KOH pH 7.4, 100 mM KCl, 10 mM MgCl2, 1 mM DTT, 24 C; MST: 10 mM Tris-HCl pH 8, 150 mM NaCl, 50 mM CaCl2, 0.05% Tween 20, 20 mg/mL BSA, 25 C; details: protein: recombinant; tags: none (native); chain copies: 2; label: 5' Cy3
[8] = target: T1, ParA_F (SopA); assay: SPR; 1 uM ParA_F, no nucleotide; EMSA: 30 mM HEPES-KOH pH 7.5, 150 mM KCl, 3 mM MgCl2, 1 mM DTT, 10% glycerol, 37 C; SPR: 20 mM Hepes-KOH pH 7.4, 100 mM KCl, 10 mM MgCl2, 1 mM DTT, 24 C; MST: 10 mM Tris-HCl pH 8, 150 mM NaCl, 50 mM CaCl2, 0.05% Tween 20, 20 mg/mL BSA, 25 C; details: protein: recombinant; tags: none (native); chain copies: 2; label: biotin
[9] = target: T1, ParA_F (SopA); assay: SPR; EMSA: 30 mM HEPES-KOH pH 7.5, 150 mM KCl, 3 mM MgCl2, 1 mM DTT, 10% glycerol, 37 C; SPR: 20 mM Hepes-KOH pH 7.4, 100 mM KCl, 10 mM MgCl2, 1 mM DTT, 24 C; MST: 10 mM Tris-HCl pH 8, 150 mM NaCl, 50 mM CaCl2, 0.05% Tween 20, 20 mg/mL BSA, 25 C; details: protein: recombinant; tags: none (native); chain copies: 2; label: biotin
[10] = target: T1, ParA_F (SopA); assay: EMSA; 3 uM ParA_F; EMSA: 30 mM HEPES-KOH pH 7.5, 150 mM KCl, 3 mM MgCl2, 1 mM DTT, 10% glycerol, 37 C; SPR: 20 mM Hepes-KOH pH 7.4, 100 mM KCl, 10 mM MgCl2, 1 mM DTT, 24 C; MST: 10 mM Tris-HCl pH 8, 150 mM NaCl, 50 mM CaCl2, 0.05% Tween 20, 20 mg/mL BSA, 25 C; details: protein: recombinant; tags: none (native); chain copies: 2; label: 5' Cy3
[11] = target: T1, ParA_F (SopA); assay: fluorescence titration; apparent Kd; EMSA: 30 mM HEPES-KOH pH 7.5, 150 mM KCl, 3 mM MgCl2, 1 mM DTT, 10% glycerol, 37 C; SPR: 20 mM Hepes-KOH pH 7.4, 100 mM KCl, 10 mM MgCl2, 1 mM DTT, 24 C; MST: 10 mM Tris-HCl pH 8, 150 mM NaCl, 50 mM CaCl2, 0.05% Tween 20, 20 mg/mL BSA, 25 C; details: protein: recombinant; tags: none (native); chain copies: 2; label: 5' Cy3
[12] = target: T1, ParA_F (SopA); assay: SPR; 10 mM Mg2+, no nucleotide; 3 dimers per DNA; EMSA: 30 mM HEPES-KOH pH 7.5, 150 mM KCl, 3 mM MgCl2, 1 mM DTT, 10% glycerol, 37 C; SPR: 20 mM Hepes-KOH pH 7.4, 100 mM KCl, 10 mM MgCl2, 1 mM DTT, 24 C; MST: 10 mM Tris-HCl pH 8, 150 mM NaCl, 50 mM CaCl2, 0.05% Tween 20, 20 mg/mL BSA, 25 C; details: protein: recombinant; tags: none (native); chain copies: 2; label: biotin

75-bp probe with motifs #1 and #3
Kd [1]: 1200 nM

120-bp Cy3 probe for ParB_F (non-specific)
Kd [2]: 1000 nM

B1: ParAF (ParA of the Escherichia coli plasmid F partition system ParABSF) (natural protein, UniProt P62556 1-388, looked up)
chain: MKLMETLNQCINAGHEMTKAIAIAQFNDDSPEARKITRRWRIGEAADLVGVSSQAIRDAEKAGRLPHPDMEIRGRVEQRVGYTIEQINHMRDVFGTRLRRAEDVFPPVIGVAAHKGGVYKTSVSVHLAQDLALKGLRVLLVEGNDPQGTASMYHGWVPDLHIHAEDTLLPFYLGEKDDVTYAIKPTCWPGLDIIPSCLALHRIETELMGKFDEGKLPTDPHLMLRLAIETVAHDYDVIVIDSAPNLGIGTINVVCAADVLIVPTPAELFDYTSALQFFDMLRDLLKNVDLKGFEPDVRILLTKYSNSNGSQSPWMEEQIRDAWGSMVLKNVVRETDEVGKGQIRMRTVFEQAIDQRSSTGAWRNALSIWEPVCNEIFDRLIKPRWEIR
notes: native protein; also called SopA; source: E. coli strain DLT812 derivative carrying pDAG127 (ParaBAD::parAF), purified (heparin, Superdex 200, mono-Q)
stoichiometry N [3]: 2

B2: PparAB_F 120-bp (motifs 122'34) (dsDNA)
DNA 1: GTAGTGTTGCTCTTATTTTAAACAACTTTGCGGTTTTTTGATGACTTTGCGATTTTGTTGTTGCTTTGCAGTAAATTGCAAGATTTAATAAAAAAACGCAAAGCAATGATTAAAGGATGT
DNA 2: ACATCCTTTAATCATTGCTTTGCGTTTTTTTATTAAATCTTGCAATTTACTGCAAAGCAACAACAAAATCGCAAAGTCATCAAAAAACCGCAAAGTTGTTTAAAATAAGAGCAACACTAC
Kd [4]: 140 ± 23 nM
Kd [5]: 130 nM
Kd [6]: ~10 nM
Kd [7]: 85 ± 20 nM

B3: nsDNA 136-bp (dsDNA)
DNA 1: CAGTGAATTGTAATACGACTCACTATAGGGCGAATTGGAGCTCCACCGCGGTGGCGGCCGCTCTAGAACTAGTGGATCCCCCGGGCTGCAGGAATTCGATATCAAGCTTATCGATACCGTCGACCTCGAGGGGGGG
DNA 2: CCCCCCCTCGAGGTCGACGGTATCGATAAGCTTGATATCGAATTCCTGCAGCCCGGGGGATCCACTAGTTCTAGAGCGGCCGCCACCGCGGTGGAGCTCCAATTCGCCCTATAGTGAGTCGTATTACAATTCACTG
binding result [8]: no binding

B4: PparAB_F 58-bp (IR3-4) (dsDNA)
DNA 1: TTGTTGTTGCTTTGCAGTAAATTGCAAGATTTAATAAAAAAACGCAAAGCAATGATTA
DNA 2: TAATCATTGCTTTGCGTTTTTTTATTAAATCTTGCAATTTACTGCAAAGCAACAACAA
binding result [9]: no binding

B5: 120-bp IR2-2* (perfect IR in the middle) (dsDNA)
DNA 1: GTAGTGTTGCTCTTATTTTAAACAATCAGTAGGTTTTTTGATGACTTTGCGATTTTGTTGTTGTCAGTAAGTAAATTGCAAAGTTTAATAAAAAAACTCAGTACAATGATTAAAGGATGT
DNA 2: ACATCCTTTAATCATTGTACTGAGTTTTTTTATTAAACTTTGCAATTTACTTACTGACAACAACAAAATCGCAAAGTCATCAAAAAACCTACTGATTGTTTAAAATAAGAGCAACACTAC
binding result [10]: no binding

B6: 120-bp IR2-2*4 (dsDNA)
DNA 1: GTAGTGTTGCTCTTATTTTAAACAATCAGTAGGTTTTTTGATGACTTTGCGATTTTGTTGTTGTCAGTAAGTAAATTGCAAAGTTTAATAAAAAAACGCAAAGCAATGATTAAAGGATGT
DNA 2: ACATCCTTTAATCATTGCTTTGCGTTTTTTTATTAAACTTTGCAATTTACTTACTGACAACAACAAAATCGCAAAGTCATCAAAAAACCTACTGATTGTTTAAAATAAGAGCAACACTAC
binding result [10]: no binding

B7: 80-bp IR3-4 probe (dsDNA)
DNA 1: GGTTTTTTGATGAGTCTCTGATTTTGTTGTTGCTTTGCAGTAAATTCAGAGATTTAATAAAAAAACGCAAAGCAATGATT
DNA 2: AATCATTGCTTTGCGTTTTTTTATTAAATCTCTGAATTTACTGCAAAGCAACAACAAAATCAGAGACTCATCAAAAAACC
Kd [11]: 500 ± 325 nM

B8: PparAB_F 136-bp (dsDNA)
DNA 1: ATCTCCTTTTGTAGTGTTGCTCTTATTTTAAACAACTTTGCGGTTTTTTGATGACTTTGCGATTTTGTTGTTGCTTTGCAGTAAATTGCAAGATTTAATAAAAAAACGCAAAGCAATGATTAAAGGATGTTCAGAA
DNA 2: TTCTGAACATCCTTTAATCATTGCTTTGCGTTTTTTTATTAAATCTTGCAATTTACTGCAAAGCAACAACAAAATCGCAAAGTCATCAAAAAACCGCAAAGTTGTTTAAAATAAGAGCAACACTACAAAAGGAGAT
binding result [12]: binds
